B1: S100A4 (wild type, full-length) (natural protein)
chain: not shown
notes: S100A4, wild type, called full-length in the NMR experiment with M111; The tag and the vector are not described; also called Mts1; metastasin; source: E. coli BL21(DE3), purified (Ni-NTA, Superdex 75)
B2: M200, C-terminal fragment of human NM-MHC IIA (residues Q1761-E1960) (domain or fragment)
chain: QINTDLNLERSHAQKNENARQQLERQNKELKVKLQEMEGTVKSKYKASITALEAKIAQLEEQLDNETKERQAACKQVRRTEKKLKDVLLQVDDERRNAEQYKDQADKASTRLKQLKRQLEEAEEEAQRANASRRKLQRELEDATETADAMNREISSLKNKLRRGDLPFVVPRRMARKGAGDGSDEEVDGKADGAEAKPAE
modifications: Parallel coiled-coil dimer. N-terminal … tag omitted. The paper prints V1913I, but by its own numbering (D1908-R1923, G1938, G1940, D1941) 1913 is E and the only adjacent Val is V1914, so …

Experiments:
Settings in all cases: both partners purified
[1] = biological target: B2; test: turbidity; apparent absorbance at 300 nm, manual mixing; 5 μM M200 filaments in 100 mM NaCl, 10 mM Hepes, 0.1 mM Ca2+, pH 7.5, 20 °C; S100A4 added, then EGTA, then Ca2+
[2] = biological target: B1; test: not stated; K0 of Scheme 1: binding in the absence of Ca2+; the experiment behind the limit is not told
[3] = biological target: B1; test: turbidity; as a12 in the presence of 250 μM M32 or 250 μM M16^N (competition for S100A4)
[4] = biological target: B1; test: stopped-flow Quin-2 fluorescence (Ca2+ dissociation); S100A4 + Ca2+ premixed with peptide or fragment, mixed with 100 μM Quin-2; 100 mM NaCl, 10 mM Hepes, 100 μM Ca2+, pH 7.5, 20 °C (M16^N also in 20 mM NaCl, 20 mM Tris, 1 mM DTT); apparent
[5] = biological target: B1; test: turbidity; Ca2+ dependence of the turbidity assay of M200 with S100A4; details in Supplementary Data
[6] = biological target: B1; test: fluorescence polarisation; competition: displacement of F-M16^N (5 μM) from S100A4 (5 μM) by increasing M32 or M16^N, with Ca2+; fit to a competitive single-site model with Kd of F-M16^N fixed at 2 μM
[7] = biological target: B1; test: stopped-flow Quin-2 fluorescence (Ca2+ dissociation); S100A4 + Ca2+ premixed with peptide or fragment, mixed with 100 μM Quin-2; 100 mM NaCl, 10 mM Hepes, 100 μM Ca2+, pH 7.5, 20 °C (M16^N also in 20 mM NaCl, 20 mM Tris, 1 mM DTT); apparent; remark: listed apart in the source
[8] = biological target: B1; test: fluorescence polarisation; competition: displacement of F-M16^N (5 μM) from S100A4 (5 μM) by increasing M32 or M16^N, with Ca2+; fit to a competitive single-site model with Kd of F-M16^N fixed at 2 μM; remark: listed apart in the source
S100A4 (wild type) = biological target: T1, S100A4 (wild type) (UniProt P26447 1-101); test: stopped-flow Quin-2 fluorescence (Ca2+ dissociation rate constant against [M32]); 10 uM S100A4 with Ca2+ premixed with M32 (0-50 uM), mixed with 100 uM Quin-2; kobs from single exponentials fitted against [M32] to a quadratic binding equation; apparent; legend says conditions as for Fig. 2c (taken as Fig. 5c: 100 mM NaCl, 10 mM Hepes, 100 uM Ca2+, pH 7.5, 20 C)
T1 construct: S100A4, wild type; predominantly a dimer under the conditions of the kinetic analysis; Concentrations are stated per monomer chain; only the Ni-NTA column is told; also called Mts1; metastasin; source: E. coli BL21(DE3), purified (Ni-NTA, Superdex 75 gel filtration)
T1 sequence (P26447 whole entry, one chain of several): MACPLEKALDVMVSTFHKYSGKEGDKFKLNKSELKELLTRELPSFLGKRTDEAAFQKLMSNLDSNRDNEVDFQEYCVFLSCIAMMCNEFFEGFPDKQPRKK

With B1 the “stoichiometry N” value [1] was 2 S100A4 monomer per M200 polypeptide chain.

Work on B2 yielded a Kd [2] greater than 100000 nM, a Kd [3] of roughly 1 nM and a koff [4] of less than 0.3 s⁻¹. The Kd [5] was no more than 3 nM.

B3: M32 myosin peptide (NM-MHC IIA A1907-G1938) (peptide, UniProt P35579-1 1907-1938, looked up)
peptide: Ac-ADAMNREVSSLKNKLRRGDLPFVVPRRMARKG-NH2
notes: nonmuscle myosin heavy chain IIA (NM-MHC IIA), human, residues A1907-G1938; source: synthetic peptide, bought: Peptide 2.0, Inc
In the case of B3, the Kd [2] is reported as greater than 100000 nM, the “KD (model in which one M32 spans two S100A4 monomers)” value [6] is reported as 1500 nM and the Kd [7] is reported as 400 nM. The Kd [8] was 3000 nM.

B4: M32 peptide (A1907-G1938 of human nonmuscle myosin heavy chain IIA) (peptide, UniProt P35579-1 1907-1938, looked up)
peptide: Ac-ADAMNREVSSLKNKLRRGDLPFVVPRRMARKG-NH2
notes: as for B3
In the case of B4, the Kd (S100A4 (wild type)) is reported as 440 nM.

From publication PMC3025356, “Mechanism of the Ca^2+-Dependent Interaction between S100A4 and Tail Fragments of Nonmuscle Myosin Heavy Chain IIA” (Journal of Molecular Biology, 2011)
